From PMC4220643, “Localization of the CyanoP binding site on photosystem II by surface plasmon resonance spectroscopy” (Frontiers in Plant Science, 2014)

T1: PsbO (Thermosynechococcus elongatus, UniProt P0A431 27-272)
T1 construct: PsbO of Thermosynechococcus elongatus, without signal peptide; Expression vector derived from pIVEX2.4d; tags and purification are told only in the supplementary material; also called extrinsic PSII subunit PsbO; source: E. coli Overexpress C43, purified
T1 sequence (looked up): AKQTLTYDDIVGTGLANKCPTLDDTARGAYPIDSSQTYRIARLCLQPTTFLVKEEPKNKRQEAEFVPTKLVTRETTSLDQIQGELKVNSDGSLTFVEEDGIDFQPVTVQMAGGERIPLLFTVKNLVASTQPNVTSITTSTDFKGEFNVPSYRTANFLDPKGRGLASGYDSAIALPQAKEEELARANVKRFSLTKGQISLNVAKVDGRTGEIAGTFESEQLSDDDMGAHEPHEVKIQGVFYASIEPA

T2: PsbV (Thermosynechococcus elongatus, UniProt P0A386 27-163)
T2 construct: PsbV of Thermosynechococcus elongatus, without signal peptide; details of expression and purification are in the supplementary material; also called extrinsic PSII subunit PsbV; source: expressed after a published protocol (Andrews et al., 2005), purified as strep-tagged protein
T2 sequence (looked up): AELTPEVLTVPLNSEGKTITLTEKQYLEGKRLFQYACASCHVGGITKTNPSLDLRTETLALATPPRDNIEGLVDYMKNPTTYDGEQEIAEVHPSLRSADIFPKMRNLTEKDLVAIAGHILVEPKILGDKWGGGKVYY

B1: Im7-mD1 (C-terminal D1 domain in its processed form fused to Im7) (domain or fragment)
chain: not shown
B2: Im7-CP43 (e-loop of CP43 fused to Im7) (domain or fragment)
chain: not shown
notes: luminal e-loop of CP43 (PsbC) of Thermosynechococcus elongatus; source: cell-free expression (RTS100, 5Prime), purified on the SPR sensor surface via DNase E7; not shown: Im7 (immunity protein 7, with GGSG linker), N-terminal, kept
B3: Im7-D1a (D1 a-loop fused to Im7) (domain or fragment)
chain: not shown
notes: D1 a-loop, D1 (PsbA1) of Thermosynechococcus elongatus, residues A54-Q113; source: cell-free expression (RTS100, 5Prime), purified on the SPR sensor surface via DNase E7; not shown: Im7 (immunity protein 7, with GGSG linker), N-terminal, kept
B4: Im7-D2 (C-terminal domain of D2 fused to Im7) (domain or fragment)
chain: not shown
notes: luminal C-terminal domain of D2 (PsbD) of Thermosynechococcus elongatus; source: cell-free expression (RTS100, 5Prime), purified on the SPR sensor surface via DNase E7; not shown: Im7 (immunity protein 7, with GGSG linker), N-terminal, kept
B5: Im7-D1pep (C-terminal peptide of processed D1 fused to Im7) (domain or fragment, Thermosynechococcus elongatus, UniProt P0A444 332-344, looked up)
chain: HERNAHNFPLDLA
notes: C-terminal peptide of processed D1, D1 (PsbA1) of Thermosynechococcus elongatus, residues H332-A344; also called D1 peptide; the 13 C-terminal residues of mature D1; source: cell-free expression (RTS100, 5Prime), purified on the SPR sensor surface via DNase E7; not shown: Im7 (immunity protein 7, with GGSG linker), N-terminal, kept
B6: Im7-pD1 (C-terminal D1 domain with precursor peptide fused to Im7) (domain or fragment)
chain: not shown
B7: Im7 fusion protein of PsbU (natural protein, Thermosynechococcus elongatus, UniProt Q9F1L5 31-134, looked up)
chain: ATASTEEELVNVVDEKLGTAYGEKIDLNNTNIAAFIQYRGLYPTLAKLIVKNAPYESVEDVLNIPGLTERQKQILRENLEHFTVTEVETALVEGGDRYNNGLYK
notes: PsbU of Thermosynechococcus elongatus, without signal peptide; PsbU is described only as an Im7 fusion protein; source: E. coli Overexpress C43, purified
B8: CyanoP (natural protein, Thermosynechococcus elongatus, UniProt Q8DH84 20-183, looked up)
chain: CSATSGLQAYVDSYDGYEFLYPRGWVQVQVEDPVDVVFHDIIETTENVSVVVNTVASTKSLEELGSPEEVGDRLLRNIIAPSESGRSSALIAATSQKADDKTYYILEYAVTLPGDGNTAQQRHNLSSIAVSRGKVYTLSVSAPEERWPKVEDQFKTIVSSFTVY
notes: CyanoP of Thermosynechococcus elongatus, without signal peptide; Expression vector derived from pIVEX2.4d; tags and purification are told only in the supplementary material; also called recombinant CyanoP; cyanobacterial homolog of higher plant PsbP; source: E. coli Overexpress C43, purified

Columns and labels:
Conditions in all cases: both partners purified
CyanoP = target: B8; test: SPR; Biacore3000, CM5 chip with covalently bound DNase E7; Im7-tagged luminal PSII domain captured from the cell-free reaction mixture (on-chip purification); reference surface with Im7, both surfaces saturated with purified Im7; soluble protein injected as analyte in triplicate; steady state responses fitted to a one site binding isotherm
PsbO = target: T1, PsbO; test: as above
PsbV [1] = target: T2, PsbV; test: as above
PsbV [2] = target: T2, PsbV; test: SPR; Biacore3000, CM5 chip coated with DNase E7; extrinsic proteins as Im7 fusion proteins overexpressed in E. coli; who was immobilised is not told in the main text; details in the supplementary material
[3] = target: T3, Im7-CP47 (e-loop of CP47 fused to Im7) (Thermosynechococcus elongatus, UniProt Q8DIQ1 255-450); test: SPR; Biacore3000, CM5 chip with covalently bound DNase E7; Im7-tagged luminal PSII domain captured from the cell-free reaction mixture (on-chip purification); reference surface with Im7, both surfaces saturated with purified Im7; soluble protein injected as analyte in triplicate; steady state responses fitted to a one site binding isotherm
T3 construct: luminal e-loop of CP47 (PsbB) of Thermosynechococcus elongatus; source: cell-free expression (RTS100, 5Prime), purified on the SPR sensor surface via DNase E7; not shown: Im7 (immunity protein 7, with GGSG linker), N-terminal, kept
T3 sequence (Q8DIQ1 255-450): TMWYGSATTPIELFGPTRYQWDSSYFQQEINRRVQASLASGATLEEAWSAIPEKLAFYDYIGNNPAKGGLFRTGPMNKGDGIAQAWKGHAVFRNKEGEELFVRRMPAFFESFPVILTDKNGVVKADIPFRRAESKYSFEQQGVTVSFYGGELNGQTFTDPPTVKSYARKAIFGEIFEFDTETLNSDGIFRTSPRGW

Binder	Kd (CyanoP) [µM]	Kd (PsbO) [µM]	other results
B1	74	–	–
B2	55	~50	Kd (PsbV [1]): 26 µM
B3	16.2	50 to 100	–
B4	5.2	~50	–
B5	100 to 150	–	–
B6	76	–	–
B7	–	–	Kd (PsbV [2]): 146 µM
B8	–	–	Kd [3]: 91 µM
